Source: the supplement of paper PMC9112550, “Optimization of the antimicrobial peptide Bac7 by deep mutational scanning” (BMC Biology, 2022)

test system: Escherichia coli TOP10; experiment: shrunken log2 fold change of peptide-encoding DNA abundance (4.5 h post-induction vs induction); higher = less antimicrobial activity (less host growth inhibition); details: time post-induction: 4.5 h; library: site-saturation at positions 5, 18, 19, 20
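Note: peptides expressed intracellularly from a pBAD plasmid library in pooled LB shake-flask culture, induced with 0.3% L-arabinose, DNA abundance read by NGS, three biological replicates, DESeq2 with apeglm shrinkage.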

Row | Sequence | shrunken log2 fold change
1 | RRIRLRPPRLPRPRPRPNPDPRP | 0.0991
2 | RRIRLRPPRLPRPRPRPNPRPRP | 0.304
3 | RRIRLRPPRLPRPRPRPNQEPRP | 0.0423
4 | RRIRLRPPRLPRPRPRPNQKPRP | -0.0744
5 | RRIRLRPPRLPRPRPRPNRFPRP | -0.404
6 | RRIRLRPPRLPRPRPRPNRKPRP | -0.223
7 | RRIRLRPPRLPRPRPRPNSTPRP | -0.294
8 | RRIRLRPPRLPRPRPRPNTTPRP | -0.463
9 | RRIRLRPPRLPRPRPRPNVHPRP | -0.505
10 | RRIRLRPPRLPRPRPRPNVWPRP | 0.346
11 | RRIRLRPPRLPRPRPRPNWTPRP | -0.084
12 | RRIRLRPPRLPRPRPRPNYEPRP | -0.416
13 | RRIRLRPPRLPRPRPRPPAGPRP | 0.607
14 | RRIRLRPPRLPRPRPRPPAMPRP | 0.42
15 | RRIRLRPPRLPRPRPRPPAQPRP | 0.888
16 | RRIRLRPPRLPRPRPRPPCGPRP | 0.191
17 | RRIRLRPPRLPRPRPRPPCSPRP | -0.0182
18 | RRIRLRPPRLPRPRPRPPDKPRP | 0.0844
19 | RRIRLRPPRLPRPRPRPPEDPRP | 0.0763
20 | RRIRLRPPRLPRPRPRPPHTPRP | 0.26
21 | RRIRLRPPRLPRPRPRPPISPRP | 0.0176
22 | RRIRLRPPRLPRPRPRPPLPPRP | 0.502
23 | RRIRLRPPRLPRPRPRPPMWPRP | 0.26
24 | RRIRLRPPRLPRPRPRPPNFPRP | 0.0275
25 | RRIRLRPPRLPRPRPRPPRTPRP | 0.591

Row | Sequence | shrunken log2 fold change
26 | RRIRLRPPRLPRPRPRPPTPPRP | 0.617
27 | RRIRLRPPRLPRPRPRPPTYPRP | -0.304
28 | RRIRLRPPRLPRPRPRPPWAPRP | 0.632
29 | RRIRLRPPRLPRPRPRPPWYPRP | -0.312
30 | RRIRLRPPRLPRPRPRPQATPRP | -0.0468
31 | RRIRLRPPRLPRPRPRPQCAPRP | 0.228
32 | RRIRLRPPRLPRPRPRPQCNPRP | -0.0192
33 | RRIRLRPPRLPRPRPRPQDMPRP | -0.169
34 | RRIRLRPPRLPRPRPRPQDRPRP | 0.128
35 | RRIRLRPPRLPRPRPRPQENPRP | -0.261
36 | RRIRLRPPRLPRPRPRPQGLPRP | -0.0348
37 | RRIRLRPPRLPRPRPRPQGNPRP | -0.0463
38 | RRIRLRPPRLPRPRPRPQHQPRP | -0.261
39 | RRIRLRPPRLPRPRPRPQINPRP | -0.506
40 | RRIRLRPPRLPRPRPRPQLAPRP | 0.384
41 | RRIRLRPPRLPRPRPRPQLYPRP | -0.12
42 | RRIRLRPPRLPRPRPRPQMCPRP | -0.0742
43 | RRIRLRPPRLPRPRPRPQMSPRP | -0.111
44 | RRIRLRPPRLPRPRPRPQNDPRP | -0.271
45 | RRIRLRPPRLPRPRPRPQNSPRP | -0.767
46 | RRIRLRPPRLPRPRPRPQPAPRP | 0.294
47 | RRIRLRPPRLPRPRPRPQPNPRP | -0.00696
48 | RRIRLRPPRLPRPRPRPQTSPRP | -0.106
49 | RRIRLRPPRLPRPRPRPQVLPRP | -0.0429
50 | RRIRLRPPRLPRPRPRPQVWPRP | 0.000105

Row | Sequence | shrunken log2 fold change
51 | RRIRLRPPRLPRPRPRPQYRPRP | -0.188
52 | RRIRLRPPRLPRPRPRPQYYPRP | -0.396
53 | RRIRLRPPRLPRPRPRPRCRPRP | 0.434
54 | RRIRLRPPRLPRPRPRPRDCPRP | -0.0082
55 | RRIRLRPPRLPRPRPRPRDLPRP | 0.0268
56 | RRIRLRPPRLPRPRPRPRDQPRP | 0.0949
57 | RRIRLRPPRLPRPRPRPRDSPRP | -0.00311
58 | RRIRLRPPRLPRPRPRPREYPRP | 0.289
59 | RRIRLRPPRLPRPRPRPRFFPRP | 0.0823
60 | RRIRLRPPRLPRPRPRPRFRPRP | 0.117
61 | RRIRLRPPRLPRPRPRPRGSPRP | 0.16
62 | RRIRLRPPRLPRPRPRPRHDPRP | 0.0303
63 | RRIRLRPPRLPRPRPRPRIAPRP | 0.317
64 | RRIRLRPPRLPRPRPRPRINPRP | -0.0907
65 | RRIRLRPPRLPRPRPRPRKAPRP | 0.022
66 | RRIRLRPPRLPRPRPRPRKGPRP | 0.0226
67 | RRIRLRPPRLPRPRPRPRMAPRP | 0.39
68 | RRIRLRPPRLPRPRPRPRMDPRP | -0.106
69 | RRIRLRPPRLPRPRPRPRMFPRP | -0.0408
70 | RRIRLRPPRLPRPRPRPRMVPRP | 0.0504
71 | RRIRLRPPRLPRPRPRPRNTPRP | -0.0367
72 | RRIRLRPPRLPRPRPRPRPMPRP | 0.725
73 | RRIRLRPPRLPRPRPRPRPVPRP | 0.637
74 | RRIRLRPPRLPRPRPRPRPWPRP | 0.199
75 | RRIRLRPPRLPRPRPRPRREPRP | 0.223

Row | Sequence | shrunken log2 fold change
76 | RRIRLRPPRLPRPRPRPRSKPRP | -0.111
77 | RRIRLRPPRLPRPRPRPRSRPRP | 0.394
78 | RRIRLRPPRLPRPRPRPRTHPRP | 0.189
79 | RRIRLRPPRLPRPRPRPRWDPRP | 0.141
80 | RRIRLRPPRLPRPRPRPRWMPRP | 0.162
81 | RRIRLRPPRLPRPRPRPRWVPRP | 0.237
82 | RRIRLRPPRLPRPRPRPSAVPRP | -0.16
83 | RRIRLRPPRLPRPRPRPSCKPRP | 0.0208
84 | RRIRLRPPRLPRPRPRPSCPPRP | -0.169
85 | RRIRLRPPRLPRPRPRPSDDPRP | -0.34
86 | RRIRLRPPRLPRPRPRPSGHPRP | -0.208
87 | RRIRLRPPRLPRPRPRPSHKPRP | -0.354
88 | RRIRLRPPRLPRPRPRPSIHPRP | -0.619
89 | RRIRLRPPRLPRPRPRPSLSPRP | -0.305
90 | RRIRLRPPRLPRPRPRPSPHPRP | -0.242
91 | RRIRLRPPRLPRPRPRPSQCPRP | -0.114
92 | RRIRLRPPRLPRPRPRPSTAPRP | -1.05
93 | RRIRLRPPRLPRPRPRPSVGPRP | 0.101
94 | RRIRLRPPRLPRPRPRPSVIPRP | -0.183
95 | RRIRLRPPRLPRPRPRPSWFPRP | -0.237
96 | RRIRLRPPRLPRPRPRPSWSPRP | 0.0192
97 | RRIRLRPPRLPRPRPRPSYDPRP | -0.292
98 | RRIRLRPPRLPRPRPRPSYNPRP | -0.588
99 | RRIRLRPPRLPRPRPRPSYSPRP | -0.589
100 | RRIRLRPPRLPRPRPRPSYTPRP | -0.792

Row | Sequence | shrunken log2 fold change
101 | RRIRLRPPRLPRPRPRPSYWPRP | -0.651
102 | RRIRLRPPRLPRPRPRPTAPPRP | 0.645
103 | RRIRLRPPRLPRPRPRPTAQPRP | 0.104
104 | RRIRLRPPRLPRPRPRPTDTPRP | -0.304
105 | RRIRLRPPRLPRPRPRPTDYPRP | -0.286
106 | RRIRLRPPRLPRPRPRPTGDPRP | -0.00286
107 | RRIRLRPPRLPRPRPRPTHIPRP | -0.148
108 | RRIRLRPPRLPRPRPRPTIEPRP | 0.033
109 | RRIRLRPPRLPRPRPRPTKAPRP | 0.0258
110 | RRIRLRPPRLPRPRPRPTLDPRP | 0.0159
111 | RRIRLRPPRLPRPRPRPTMLPRP | -0.335
112 | RRIRLRPPRLPRPRPRPTMNPRP | -0.362
113 | RRIRLRPPRLPRPRPRPTMTPRP | -0.256
114 | RRIRLRPPRLPRPRPRPTMVPRP | -0.0972
115 | RRIRLRPPRLPRPRPRPTNAPRP | 0.00567
116 | RRIRLRPPRLPRPRPRPTNKPRP | -0.264
117 | RRIRLRPPRLPRPRPRPTNYPRP | -0.251
118 | RRIRLRPPRLPRPRPRPTPCPRP | 0.152
119 | RRIRLRPPRLPRPRPRPTPFPRP | 0.253
120 | RRIRLRPPRLPRPRPRPTPKPRP | 0.137
121 | RRIRLRPPRLPRPRPRPTPWPRP | 0.381
122 | RRIRLRPPRLPRPRPRPTQHPRP | 0.218
123 | RRIRLRPPRLPRPRPRPTQKPRP | 0.194
124 | RRIRLRPPRLPRPRPRPTQWPRP | 0.453
125 | RRIRLRPPRLPRPRPRPTRIPRP | -0.141

Row | Sequence | shrunken log2 fold change
126 | RRIRLRPPRLPRPRPRPTVGPRP | 0.0924
127 | RRIRLRPPRLPRPRPRPTWYPRP | -0.221
128 | RRIRLRPPRLPRPRPRPTYGPRP | -0.0237
129 | RRIRLRPPRLPRPRPRPVAAPRP | 0.382
130 | RRIRLRPPRLPRPRPRPVANPRP | -0.0731
131 | RRIRLRPPRLPRPRPRPVAVPRP | 0.0513
132 | RRIRLRPPRLPRPRPRPVCDPRP | -0.0188
133 | RRIRLRPPRLPRPRPRPVCIPRP | -0.498
134 | RRIRLRPPRLPRPRPRPVCSPRP | -0.14
135 | RRIRLRPPRLPRPRPRPVCVPRP | -0.115
136 | RRIRLRPPRLPRPRPRPVDAPRP | 0.243
137 | RRIRLRPPRLPRPRPRPVDIPRP | -0.183
138 | RRIRLRPPRLPRPRPRPVETPRP | 0.217
139 | RRIRLRPPRLPRPRPRPVGFPRP | 0.212
140 | RRIRLRPPRLPRPRPRPVGIPRP | 0.102
141 | RRIRLRPPRLPRPRPRPVHEPRP | 0.0233
142 | RRIRLRPPRLPRPRPRPVHYPRP | -0.498
143 | RRIRLRPPRLPRPRPRPVLWPRP | 0.389
144 | RRIRLRPPRLPRPRPRPVMDPRP | -0.0398
145 | RRIRLRPPRLPRPRPRPVMKPRP | -0.13
146 | RRIRLRPPRLPRPRPRPVNDPRP | -0.52
147 | RRIRLRPPRLPRPRPRPVNRPRP | 0.199
148 | RRIRLRPPRLPRPRPRPVQDPRP | -0.105
149 | RRIRLRPPRLPRPRPRPVQIPRP | 0.364
150 | RRIRLRPPRLPRPRPRPVQRPRP | 0.134
